US20150017095A1 (AbbVie / Abbott, published 2015)
Blank lines part the entries; values can stand above or below the binder they belong to.

What was measured:
Recombinant Human IL-17 [1] = target: T1, Recombinant Human IL-17 (human, UniProt Q16552 20-155, limits assumed); test: BIACORE SPR, DVD-Ig captured, antigen in flow (N-terminal VD)
T1 construct: also called IL-17A
Method: (§1) The BIACORE assay (Biacore, Inc, Piscataway, N.J.) determines the affinity of antibodies or DVD-Ig with kinetic measurements of on-rate and off-rate constants. […] All chemicals are obtained from Biacore® AB (Uppsala, Sweden) or otherwise from a different source as described in the text. For example, approximately 5000 RU of goat anti-mouse IgG, (Fcγ), fragment specific polyclonal antibody (Pierce Biotechnology Inc, Rockford, Ill.) diluted in 10 mM sodium acetate (pH 4.5) is directly immobilized across a CM5 research grade biosensor chip using a standard amine coupling kit according to manufacturer's instructions and procedures at 25 μg/ml. Unreacted moieties on the biosensor surface are blocked with ethanolamine. Modified carboxymethyl dextran surface in flowcell 2 and 4 is used as a reaction surface. Unmodified carboxymethyl dextran without goat anti-mouse IgG in flow cell 1 and 3 is used as the reference surface. For kinetic analysis, rate equations derived from the 1:1 Langmuir binding model are fitted simultaneously to association and dissociation phases of all eight injections (using global fit analysis) with the use of Biaevaluation 4.0.1 software. Purified antibodies or DVD-Ig are diluted in HEPES-buffered saline for capture across goat anti-mouse IgG specific reaction surfaces. Antibodies or DVD-Ig to be captured as a ligand (25 μg/m) are injected over reaction matrices at a flow rate of 5 μl/min. The association and dissociation rate constants, kₒₙ (M⁻¹s⁻¹) and koff (s⁻¹) are determined under a continuous flow rate of 25 μl/min. Rate constants are derived by making kinetic binding measurements at different antigen concentrations ranging from 10-200 nM. The equilibrium dissociation constant (M) of the reaction between antibodies or DVD-Igs and the target antigen is then calculated from the kinetic rate constants by the following formula: KD=koff/kₒₙ. Binding is recorded as a function of time and kinetic rate constants are calculated.

Recombinant Human IL-17 [2] = target: T1, Recombinant Human IL-17; test: direct bind ELISA, antigen coated on plate (N-terminal VD)
Method: (§2) Enzyme Linked Immunosorbent Assays to screen for antibodies that bind a desired target antigen were performed as follows. High bind ELISA plates (Corning Costar #3369, Acton, Mass.) were coated with 100 μL/well of 10 μg/ml of desired target antigen (R&D Systems, Minneapolis, Minn.) or desired target antigen extra-cellular domain/FC fusion protein (R&D Systems, Minneapolis, Minn.) or monoclonal mouse anti-polyHistidine antibody (R&D Systems # MAB050, Minneapolis, Minn.) in phosphate buffered saline (10×PBS, Abbott Bioresearch Center, Media Prep# MPS-073, Worcester, Mass.) overnight at 4° C. Plates were washed four times with PBS containing 0.02% Tween 20. Plates were blocked by the addition of 300 μL/well blocking solution (non-fat dry milk powder, various retail suppliers, diluted to 2% in PBS) for ½ hour at room temperature. Plates were washed four times after blocking with PBS containing 0.02% Tween 20.
(§3) Plates were washed 4 times with PBS containing 0.02% Tween 20.
(§4) One hundred microliters of enhanced TMB solution (Neogen Corp. #308177, K Blue, Lexington, Ky.) was added to each well and incubated for 10 minutes at room temperature. The reaction was stopped by the addition of 50 μL 1N sulphuric acid.

Recombinant Human IL-17 [3] = target: T1, Recombinant Human IL-17; test: cell-based or functional assay
Recombinant Human IL-17 [4] = target: T1, Recombinant Human IL-17; test: direct bind ELISA, antigen coated on plate (C-terminal VD)
Method: as §2, §3, §4

Recombinant Human IL-17 [5] = target: T1, Recombinant Human IL-17; test: BIACORE SPR, DVD-Ig captured, antigen in flow (C-terminal VD)
Method: as §1

[6] = target: T2, Recombinant Human IL-6 sR (human, UniProt P08887 20-358); test: BIACORE SPR, DVD-Ig captured, antigen in flow (N-terminal VD)
T2 construct: domain: IL-6 sR; Bought reagent; also called IL-6R
T2 sequence (looked up): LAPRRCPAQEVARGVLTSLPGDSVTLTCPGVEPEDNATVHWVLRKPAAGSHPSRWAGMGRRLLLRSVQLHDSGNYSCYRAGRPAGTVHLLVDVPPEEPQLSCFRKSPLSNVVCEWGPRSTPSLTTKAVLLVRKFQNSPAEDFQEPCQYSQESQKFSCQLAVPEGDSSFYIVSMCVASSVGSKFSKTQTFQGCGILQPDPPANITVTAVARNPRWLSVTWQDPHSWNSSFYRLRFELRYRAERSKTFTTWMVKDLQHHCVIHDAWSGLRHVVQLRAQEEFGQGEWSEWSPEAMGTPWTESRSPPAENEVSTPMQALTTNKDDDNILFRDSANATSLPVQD
Method: as §1

[7] = target: T2, Recombinant Human IL-6 sR; test: direct bind ELISA, antigen coated on plate (N-terminal VD)
Method: as §2, §3, §4

Recombinant Human IL-1β [8] = target: T3, Recombinant Human IL-1β (human, UniProt P01584 117-269); test: cell-based or functional assay
Recombinant Human IL-1β [9] = target: T3, Recombinant Human IL-1β; test: direct bind ELISA, antigen coated on plate (C-terminal VD)
Method: as §2, §3, §4

T1 sequence (Q16552 20-155 limits assumed): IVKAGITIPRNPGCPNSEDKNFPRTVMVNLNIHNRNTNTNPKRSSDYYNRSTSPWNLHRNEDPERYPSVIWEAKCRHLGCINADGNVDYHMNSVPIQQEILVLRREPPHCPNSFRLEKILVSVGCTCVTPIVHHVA

B2: DVD155 (PGE2 / IL-17A DVD-Ig) (bispecific antibody)
VH: EVQLVQSGAEVKKPGASVKVSCKASGYTFTKYWLGWVRQAPGQGLEWMGDIYPGYDYTHYNEKFKDRVTLTTDTSTSTAYMELRSLRSDDTAVYYCARSDGSSTYWGQGTLVTVSSASTKGPEVQLVESGGGLVQPGGSLRLSCAASGFTFSNYWMNWVRQAPGKGLEWVAAINQDGSEKYYVGSVKGRFTISRDNAKNSLYLQMNSLRVEDTAVYYCVRDYYDILTDYYIHYWYFDLWGRGTLVTVSS
VL: not shown
notes: Outer domain is AB048 (PGE2), inner domain is AB029 (IL-17A); also called VD155H; VD155L
EC50 (Recombinant Human IL-17 [4]): 248 nM
Kd (Recombinant Human IL-17 [5]): 3.37 nM
koff (Recombinant Human IL-17 [5]): 0.000125 s⁻¹
kon (Recombinant Human IL-17 [5]): 37000 M⁻¹ s⁻¹
C-terminal VD IL-17 Neutralization Assay EC50 nM (IL-6 secretion by HS27 cells) (Recombinant Human IL-17 [3]): 5.7e-05 nM

B3: DVD152 (IL-6R / PGE2 DVD-Ig) (bispecific antibody)
VH: EVQLQESGPGLVRPSQTLSLTCTVSGYSITSDHAWSWVRQPPGRGLEWIGYISYSGITTYNPSLKSRVTMLRDTSKNQFSLRLSSVTAADTAVYYCARSLARTTAMDYWGQGSLVTVSSASTKGPEVQLVQSGAEVKKPGASVKVSCKASGYTFTKYWLGWVRQAPGQGLEWMGDIYPGYDYTHYNEKFKDRVTLTTDTSTSTAYMELRSLRSDDTAVYYCARSDGSSTYWGQGTLVTVSS
VL: DIQMTQSPSSLSASVGDRVTITCRASQDISSYLNWYQQKPGKAPKLLIYYTSRLHSGVPSRFSGSGSGTDFTFTISSLQPEDIATYYCQQGNTLPYTFGQGTKVEIKRTVAAPDVLMTQTPLSLPVTPGEPASISCTSSQNIVHSNGNTYLEWYLQKPGQSPQLLIYKVSNRFSGVPDRFSGSGSGTDFTLKISRVEAEDVGVYYCFQVSHVPYTFGGGTKVEIKR
notes: Outer domain is AB054 (IL-6R), inner domain is AB048 (PGE2); also called VD152H; VD152L
Kd [6]: 0.275 nM
koff [6]: 0.000115 s⁻¹
kon [6]: 420000 M⁻¹ s⁻¹
EC50 [7]: 1.62 nM

More lines, now with the values ahead:

Kd (Recombinant Human IL-17 [1]): ≤ 0.0115 nM
koff (Recombinant Human IL-17 [1]): < 1e-06 s⁻¹
kon (Recombinant Human IL-17 [1]): 86800 M⁻¹ s⁻¹
EC50 (Recombinant Human IL-17 [2]): 0.62 nM
N-terminal VD IL-17 Neutralization Assay EC50 nM (IL-6 secretion by HS27 cells) (Recombinant Human IL-17 [3]): 0.2 nM
B1: DVD156 (IL-17A / PGE2 DVD-Ig) (bispecific antibody)
VH: EVQLVESGGGLVQPGGSLRLSCAASGFTFSNYWMNWVRQAPGKGLEWVAAINQDGSEKYYVGSVKGRFTISRDNAKNSLYLQMNSLRVEDTAVYYCVRDYYDILTDYYIHYWYFDLWGRGTLVTVSSASTKGPEVQLVQSGAEVKKPGASVKVSCKASGYTFTKYWLGWVRQAPGQGLEWMGDIYPGYDYTHYNEKFKDRVTLTTDTSTSTAYMELRSLRSDDTAVYYCARSDGSSTYWGQGTLVTVSS
VL: not shown
notes: Outer domain is AB029 (IL-17A), inner domain is AB048 (PGE2); also called VD156H; VD156L

C-terminal VD IL-1β Neutralization Assay EC50 nM (IL-8 release by MRC5 cells) (Recombinant Human IL-1β [8]): 3.22 nM
EC50 (Recombinant Human IL-1β [9]): 2480 nM
B4: DVD157 (PGE2 / IL-1b DVD-Ig) (bispecific antibody)
VH: EVQLVQSGAEVKKPGASVKVSCKASGYTFTKYWLGWVRQAPGQGLEWMGDIYPGYDYTHYNEKFKDRVTLTTDTSTSTAYMELRSLRSDDTAVYYCARSDGSSTYWGQGTLVTVSSASTKGPQVQLVESGGGVVQPGRSLRLSCAASGFTFSVYGMNWVRQAPGKGLEWVAIIWYDGDNQYYADSVKGRFTISRDNSKNTLYLQMNGLRAEDTAVYYCARDLRTGPFDYWGQGTLVTVSS
VL: DVLMTQTPLSLPVTPGEPASISCTSSQNIVHSNGNTYLEWYLQKPGQSPQLLIYKVSNRFSGVPDRFSGSGSGTDFTLKISRVEAEDVGVYYCFQVSHVPYTFGGGTKVEIKRTVAAPEIVLTQSPDFQSVTPKEKVTITCRASQSIGSSLHWYQQKPDQSPKLLIKYASQSFSGVPSRFSGSGSGTDFTLTINSLEAEDAAAYYCHQSSSLPFTFGPGTKVDIKR
notes: Outer domain is AB048 (PGE2), inner domain is AB032 (IL-1b); also called VD157H; VD157L
